The target in assay [1] is T1, human CD200R1 with dual His-tags (human, UniProt Q8TD46 25-265).
T1 construct: Captured on the SPR chip by an anti-histidine antibody; also called hCD200R1-his; not shown: dual His-tags
T1 sequence (looked up): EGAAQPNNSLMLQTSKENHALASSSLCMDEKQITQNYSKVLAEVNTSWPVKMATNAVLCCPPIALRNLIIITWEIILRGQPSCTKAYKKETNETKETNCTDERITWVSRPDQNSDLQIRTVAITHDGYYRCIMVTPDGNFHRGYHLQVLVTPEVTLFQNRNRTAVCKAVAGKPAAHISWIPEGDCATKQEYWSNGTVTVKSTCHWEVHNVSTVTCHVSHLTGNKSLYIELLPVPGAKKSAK
Put plainly: SPR (Biacore CM5), His-tagged antigen captured by anti-histidine antibody, antibody as analyte, 1:1 Langmuir fit. The procedure: (§1) For the experiment, 30 μg/mL of an anti-histidine antibody was conjugated to a CM5 biacore chip via an amine bond while allowing to flow at 10 μl/min (10,000 RU). Then, 0.25 μg/mL of human or cynomolgus CD200R1 with dual His-tags was captured onto the completed chip for 60 seconds, and the binding ability of each antibody was analyzed. All experiments were performed by association of antibodies for 120 seconds and dissociation of antibodies for 600 seconds. The resulting graphs were fitted using a 1:1 Langmuir binding kinetic model (FIG. 16), and the kinetics of each antibody were calculated.

Assay [2] deals with T2, cynomolgus CD200R1 with dual His-tags (cynomolgus, UniProt G7NZT0 25-266).
T2 construct: Captured on the SPR chip by an anti-histidine antibody; also called CCD200R1-his; cCD200R1-his; not shown: dual His-tags
T2 sequence: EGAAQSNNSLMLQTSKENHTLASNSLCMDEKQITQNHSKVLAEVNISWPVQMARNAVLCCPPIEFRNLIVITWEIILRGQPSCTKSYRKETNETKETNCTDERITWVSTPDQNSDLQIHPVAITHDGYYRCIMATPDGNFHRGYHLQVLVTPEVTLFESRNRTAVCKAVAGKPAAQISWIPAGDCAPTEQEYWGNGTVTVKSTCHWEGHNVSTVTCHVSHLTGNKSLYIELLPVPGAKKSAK
Described as above. The method, then:
as §1

The target of assay [3] is T3, human CD200R1 expressed on cells (Jurkat-CD200R1, U937-CD200R1, HH cells) (human, UniProt Q8TD46 25-348).
T3 construct: whole, on cells; also called HH (CRL-2105); cell surface-expressed CD200R1
T3 sequence (looked up): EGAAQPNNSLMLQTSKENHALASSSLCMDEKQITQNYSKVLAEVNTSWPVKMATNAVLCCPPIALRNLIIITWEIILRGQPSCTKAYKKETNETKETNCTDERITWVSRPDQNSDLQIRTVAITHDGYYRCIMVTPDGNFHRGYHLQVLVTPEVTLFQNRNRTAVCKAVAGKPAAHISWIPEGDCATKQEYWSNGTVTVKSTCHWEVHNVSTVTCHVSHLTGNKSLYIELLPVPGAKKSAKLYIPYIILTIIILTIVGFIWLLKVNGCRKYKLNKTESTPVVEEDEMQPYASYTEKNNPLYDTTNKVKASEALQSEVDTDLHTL
The assay can be described thus: flow cytometry, Jurkat-CD200R cells. The method, then:
Two additional wells were treated with 10 μl of mouse IgG1K (BD, #555751) and 5 μl of commercial CD200R1 antibody (Biolegend, #329308) to determine CD200R1 expression on the cell line surface for cell quality control.
The antibodies were serially diluted 10-fold from a maximum concentration of 100 nM to 10 nM, 1 nM, […], and were added to the pre-seeded cells. After reaction for 1 hour at 4° C., the cells were treated with Alexa-647 goat anti-human IgG (H+L) cross-adsorbed secondary antibody (Invitrogen, #A21445) and incubated for an additional 30 minutes at 4° C. After washing twice with FACS buffer, flow cytometry was performed using a Novocyte Flow cytometer (Agilent). Using GraphPad Prism software, the EC₅₀ was determined using a nonlinear graph model of log (agonist) vs. response-variable slope, as shown in Table 32.

Assay [4] has as its target T4, human CD200RLa (Sino Biological, 11620-H08H) recombinant protein (human, UniProt Q6Q8B3 24-239).
T4 construct: Bought; construct not described
T4 sequence (looked up): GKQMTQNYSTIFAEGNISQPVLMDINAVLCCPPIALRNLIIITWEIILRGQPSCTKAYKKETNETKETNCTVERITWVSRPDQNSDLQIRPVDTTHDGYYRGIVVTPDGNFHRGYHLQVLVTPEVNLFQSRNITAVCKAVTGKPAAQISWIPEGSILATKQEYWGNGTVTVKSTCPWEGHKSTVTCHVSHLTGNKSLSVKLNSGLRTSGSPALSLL
The assay can be described thus: ELISA, plate-bound human CD200RLa (2 ug/mL), antibody 0.0192-300 nM, O.D 450 nm; panel 'recombinant human CD200RLa'. The method, then:
(§2) 96-well plates were coated with human CD200RLa (Sino Biological, 11620-H08H) and monkey CD200RLa (Sino Biological, 11576-C02H) recombinant proteins at a concentration of 2 μg/mL at 4° C. for 16 hours, and blocked with 3% skim milk for 1 hour. […] Color was developed with a TMB substrate solution (Thermo Scientific, 34029, 1-Step™ Ultra TMB-ELISA Substrate Solution). The color reaction was stopped with stop solution (Invitrogen, SS04, ELISA Stop Solution).
A general note: In an ELISA, binding on a coated surface is turned into a signal by an enzyme label.

The target in the next assay is T5, Hybrid CD200R1 MH (mouse;human, UniProt Q9ES57;Q8TD46).
T5 construct: single domain; mouse D1 over human D2; also called MH hybrid domain; P001 MH domain
T5 sequence (hybrid extracellular part, looked up): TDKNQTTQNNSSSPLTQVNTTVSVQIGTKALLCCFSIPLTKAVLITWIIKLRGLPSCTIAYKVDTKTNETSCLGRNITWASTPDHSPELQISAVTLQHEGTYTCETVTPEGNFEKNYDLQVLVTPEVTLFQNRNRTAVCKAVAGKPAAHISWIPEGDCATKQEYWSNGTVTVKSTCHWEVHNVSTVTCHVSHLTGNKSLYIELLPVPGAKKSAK
Put plainly: ELISA, plate-bound MH hybrid (1 ug/mL), antibody 0.0192-300 nM, O.D 450 nm; panel 'P001 MH domain-1)'. The method, then:
Recombinant proteins were produced from the extracellular Ig-like V-type domain and Ig-like C2-type domain of human CD200R1, each designed as human-mouse (HM hybrid domain) and mouse-human (MH hybrid domain) recombinant proteins. A 96-well plate was coated at a concentration of 1 μg/mL with each protein at 4° C. for 16 hours and blocked with 3% skim milk. […] After color development with TMB substrate solution (Thermo Scientific, 34029, 1-Step™ Ultra TMB-ELISA Substrate Solution), the color reaction was stopped with a stop solution (Invitrogen, SS04, ELISA Stop Solution), and the absorbance was measured at an O.D. of 450 nm.

The target of assay [5] is T6, mouse CD200R1 protein (R&D systems, 2554-CD) (mouse, UniProt Q9ES57 26-238, limits assumed).
T6 construct: Bought; construct not described
T6 sequence (looked up): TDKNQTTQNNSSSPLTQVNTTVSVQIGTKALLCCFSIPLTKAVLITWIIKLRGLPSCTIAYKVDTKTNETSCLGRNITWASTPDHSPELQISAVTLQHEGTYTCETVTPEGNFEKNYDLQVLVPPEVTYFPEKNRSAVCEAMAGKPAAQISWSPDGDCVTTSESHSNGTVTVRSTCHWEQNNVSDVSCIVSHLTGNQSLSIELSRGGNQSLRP
Put plainly: ELISA, plate-bound mouse CD200R1 (2 ug/mL), IgG 0.0192-300 nM, OD 450 nm; panel 'mouse CD200R1'. The procedure: 96-well plates were coated with human CD200R1 (R&D systems, 3414-CD) and mouse CD200R1 protein (R&D systems, 2554-CD) at a concentration of 2 μg/mL at 4° C. for 16 hours and then were blocked with 3% skim milk.
Color was developed with a TMB substrate solution (Thermo Scientific, 34029, 1-Step™ TMB-ELISA Ultra Substrate Solution). The color reaction was stopped with stop solution (Invitrogen, SS04, ELISA Stop Solution). The absorbance was measured at an optical density of 450 nm.

Assay [6] deals with T7, monkey CD200RLa (Sino Biological, 11576-C02H) recombinant protein (monkey (cyno), UniProt A0A2K5W6R0 30-246).
T7 construct: Bought; construct not described; also called cyno CD200RLa
T7 sequence: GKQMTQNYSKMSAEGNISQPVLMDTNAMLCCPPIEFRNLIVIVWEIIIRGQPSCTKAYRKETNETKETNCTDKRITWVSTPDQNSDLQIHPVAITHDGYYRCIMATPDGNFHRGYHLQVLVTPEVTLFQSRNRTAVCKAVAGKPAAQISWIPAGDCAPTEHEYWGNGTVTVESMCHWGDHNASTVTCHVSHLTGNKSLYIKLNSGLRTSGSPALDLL
The assay can be described thus: ELISA, plate-bound monkey CD200RLa (2 ug/mL), antibody 0.0192-300 nM, O.D 450 nm; panel 'recombinant cynomolgus CD200RLa/Fc'. The method, then: as §2

B1: P001009v2 (antibody, V domains shown)
VH: EVQLLESGGGLVQPGGSLRLSCAASGFTFSSYDMSWVRQAPGKGLEWVSWISHGGGSIYYADSVKGRFTISRDNSKNTLYLQMNSLRAEDTAVYYCARDAPAYSAPLFDYWGQGTLVTVSS
VL: QSVLTQPPSASGTPGQRVTISCSGSSSNIGNNAVNWYQQLPGTAPKLLIYYDKNRPSGVPDRFSGSKSGTSASLAISGLRSEDEADYYCAAWDRSLSGYVFGGGTKLTVL
notes: P001009 with LC S52K and D93R (Kabat); also called P019001v2
As to B1, in assay [1], the dissociation constant (Kd) stood at 870 pM, the koff was determined as 0.00654 s⁻¹ and the association rate constant (kon) came to 7.52e+06 M⁻¹ s⁻¹. Further, in assay [2], the dissociation constant Kd came to 28.6 pM, the koff stood at 8.08e-05 s⁻¹ and the kon is 2.82e+06 M⁻¹ s⁻¹. In assay [3], this molecule yielded a 50% effective concentration (EC50) of 3080 pM.

B2: P001003 (IgG) (antibody, V domains shown)
VH: EVQLLESGGGLVQPGGSLRLSCAASGFTFSDYAMSWVRQAPGKGLEWVSAISHGGSSKYYADSVKGRFTISRDNSKNTLYLQMNSLRAEDTAVYYCARGPEVMLEFDYWGQGTLVTVSS
VL: QSVLTQPPSASGTPGQRVTISCTGSSSNIGNNAVTWYQQLPGTAPKLLIYSDNHRPSGVPDRFSGSKSGTSASLAISGLRSEDEADYYCAAWDSSLSGYVFGGGTKLTVL
With B2, the binding result (in assay [4]; in the assay with Hybrid CD200R1 MH; in assay [5]) was “no binding (tested: 300 nM)” in each case.

B3: P001007 (IgG) (antibody, V domains shown)
VH: EVQLLESGGGLVQPGGSLRLSCAASGFTFSNYDMSWVRQAPGKGLEWVSAISYDNGNTYYADSVKGRFTISRDNSKNTLYLQMNSLRAEDTAVYYCARNRAWFDYWGQGTLVTVSS
VL: QSVLTQPPSASGTPGQRVTISCSGSSSNIGNNNVYWYQQLPGTAPKLLIYYDSQRPSGVPDRFSGSKSGTSASLAISGLRSEDEADYYCAAWDASLNGYVFGGGTKLTVL
With B3, the binding result in assay [4] and in assay [6] was “no binding (tested: 300 nM)” throughout.

B4: P001009v4 (antibody, V domains shown)
VH: EVQLLESGGGLVQPGGSLRLSCAASGFTFSSYDMSWVRQAPGKGLEWVSWISHGGGSIYYADSVKGRFTISRDNSKNTLYLQMNSLRAEDTAVYYCARDAPAYSAPLFDYWGQGTLVTVSS
VL: QSVLTQPPSASGTPGQRVTISCSGSSSNIGNKAVNWYQQLPGTAPKLLIYYDSNRPSGVPDRFSGSKSGTSASLAISGLRSEDEADYYCAAWDDSLSGYVFGGGTKLTVL
notes: P001009 with LC N31K (Kabat); also called P019001v4
In assay [1], B4 had a dissociation constant (Kd) of 1040 pM, a koff of 0.007 s⁻¹ and a kon of 6.74e+06 M⁻¹ s⁻¹. Moreover, in assay [2], the dissociation constant (Kd) was determined as 82.2 pM, the off-rate (koff) came to 0.000305 s⁻¹ and the kon came to 3.71e+06 M⁻¹ s⁻¹. In assay [3], this molecule yielded an EC50 of 2370 pM.

B5: P001009v3 (antibody, V domains shown)
VH: EVQLLESGGGLVQPGGSLRLSCAASGFTFSSYDMSWVRQAPGKGLEWVSWISHGGGSIYYADSVKGRFTISRDNSKNTLYLQMNSLRAEDTAVYYCARDAPAYSAPLFDYWGQGTLVTVSS
VL: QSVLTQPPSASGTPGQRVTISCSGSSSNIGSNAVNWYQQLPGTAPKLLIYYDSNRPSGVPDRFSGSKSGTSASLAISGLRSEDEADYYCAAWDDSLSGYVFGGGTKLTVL
notes: P001009 with LC N30S (Kabat); also called P019001v3
In assay [1], B5 displayed an equilibrium dissociation constant (Kd) of 109 pM, a koff of 0.000452 s⁻¹ and a kon of 4.16e+06 M⁻¹ s⁻¹. In addition, in assay [2], the affinity, expressed as Kd, was 1150 pM; the koff was found to be 7.09 s⁻¹; the kon came to 6.14e+09 M⁻¹ s⁻¹. Also, the EC50 in assay [3] was 330 pM.

B6: P001011 (IgG) (antibody, V domains shown)
VH: EVQLLESGGGLVQPGGSLRLSCAASGFTFSDYYMSWVRQAPGKGLEWVSWISSGGGSTYYADSVKGRFTISRDNSKNTLYLQMNSLGAEDTAVYYCARVRGTCNGTLCYYSNAMDVWGQGTLVTVSS
VL: QSVLTQPPSASGTPGQRVTISCTGSSSNIGSNDVSWYQQLPGTAPKLLIYDDNHRPSGVPDRFSGSKSGTSASLAISGLRSEDEADYYCGTWDASLNAYVFGGGTKLTVL
For B6, the binding result in assay [4], in assay [6] and in assay [5] was “no binding (tested: 300 nM)” each time.

By Kd is commonly meant the concentration at which binding is half-saturated. In general, koff refers to the first-order rate constant of dissociation. A word on the kon: it is a measure of how fast the partners come together. As a reminder, the EC50 is the concentration that produces a half-maximal response.

For the origin of these results see patent publication US20260263521A1 (AIMED BIO, published 2026).
